Laboratory results reported in US12214052 (dated 2025).
Where a chain is given by its changes, count along the chain named.

B1: 1210 Fab (Fab, V domains shown)
VH: QVQLVESGGGVVQPGRSLRLSCAASGFTFSNYGMHWVRQAPGKGLEWVAVIWYDGSKKYYADSVKGRFTISRDNSKNTLYLQMNSLRAEDTAVYYCARVRDSSDYYGDAFDIWGQGTMVTVSS
VL: DIQMTQSPSTLSASVGDRVTITCRASQSISSWLAWYQQKPGKAPKLLIYKASNLESGVPLRFSGSGSGTEFTLTISSLQPDDFATYYCQQYNNYWTFGQGTKVEIK
B2: antibody 1210 (IgG) (antibody, V domains shown)
VH: B1 VH
VL: B1 VL
B3: 1210_YY IgG (antibody, V domains shown)
VH: B1 VH with D104Y
VL: B1 VL with N92Y

How the values were obtained:
CSP-NPNA5.5-10x-1210 Fab [1] = test: ITC
CSP-NPNA5.5-10x-1210 Fab [2] = test: ITC; remark: listed apart in the source
CSP-NPNA5.5-12x-1210 Fab [3] = test: ITC
CSP-NPNA5.5-8x-1210 Fab [4] = test: ITC
CSP-NPNA5.5-12x-1210 Fab [5] = test: ITC; remark: listed apart in the source
CSP-NPNA5.5-8x-1210 Fab [6] = test: ITC; remark: listed apart in the source
[7] = molecular target: full length PfCSP (NF54 strain) (Plasmodium falciparum (NF54 strain), UniProt P19597 20-384); test: BLI; avid
full length PfCSP (NF54 strain), sequence (P19597 20-384): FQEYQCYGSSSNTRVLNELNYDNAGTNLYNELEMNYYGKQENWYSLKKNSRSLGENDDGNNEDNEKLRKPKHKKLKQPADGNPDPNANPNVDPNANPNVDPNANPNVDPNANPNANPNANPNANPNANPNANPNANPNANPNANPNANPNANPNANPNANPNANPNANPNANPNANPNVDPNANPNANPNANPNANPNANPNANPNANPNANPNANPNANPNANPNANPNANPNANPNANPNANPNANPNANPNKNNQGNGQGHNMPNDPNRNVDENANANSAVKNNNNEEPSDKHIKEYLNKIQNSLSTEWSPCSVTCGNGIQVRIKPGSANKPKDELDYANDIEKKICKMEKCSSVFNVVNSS

| Binder | Kd (CSP-NPNA5.5-10x-1210 Fab [1]) | Ka (CSP-NPNA5.5-10x-1210 Fab [2]) | Kd (CSP-NPNA5.5-12x-1210 Fab [3]) | Ka (CSP-NPNA5.5-8x-1210 Fab [4]) | Ka (CSP-NPNA5.5-12x-1210 Fab [5]) | Kd (CSP-NPNA5.5-8x-1210 Fab [6]) | Kd [7] |
| --- | --- | --- | --- | --- | --- | --- | --- |
| B1 | 456 nM | 2.19e+06 M⁻¹ | 174 nM | 3e+06 M⁻¹ | 5.73e+06 M⁻¹ | 333 nM | – |
| B2 | – | – | – | – | – | – | < 0.001 nM |
| B3 | – | – | – | – | – | – | 0.66 nM |
